B1: M29-G08 (Fab, V domains shown)
VH: EVQLLESGGGLVQPGGSLRLSCAASGFTFSYYHMWWVRQAPGKGLEWVSGISPSGGFTFYADSVKGRFTISRDNSKNTLYLQMNSLRAEDTAVYYCARDYYYDSSGYSPLGYWGQGTLVTVSS
VL: DIQMTQSPATLSASPGETVTLSCRASQNIGNDVAWYRQRPGQAPRLLIHHASTRAYGIPARLRGSGSATEFTLTITSLEPEDFAIYYCQQFYDWPAHTFALGTRLEIKR
notes: Fab fragment (E. coli TG1); printed HC runs into the start of CH1
B2: M74-A07 (Fab, V domains shown)
VH: EVQLLESGGGLVQPGGSLRLSCAASGFTFSQYLMMWVRQAPGKGLEWVSSIYPSGGYTSYADSVKGRFTISRDNSKNTLYLQMNSLRAEDTAVYYCARVSTAVADNDYWGQGTLVTVSS
VL: DIQMTQSPSSLSASVRDRVTITCRTSQNINTYLNWYYQAPGRAPKLLIFGVSSLHRGVSSRFSGSGDGTEFTLTISSLQPEDIGTYFCQQSYSSPWTFGQGTKVEIK
notes: as for B1
B3: M6-A06 (Fab, V domains shown)
VH: EVQLLESGGGLVQPGGSLRLSCAASGFTFSLYQMTWVRQAPGKGLEWVSGIWPSGGFTDYADSVKGRFTISRDNSKNTLYLQMNSLRAEDTAVYYCARVSTAVADNDYWGQGTLVTVSS
VL: DIQMTQSPSSLSASVGDSVTISCRASQSISMYLNWYQHKPGKAPKLLIYGTSSLQSGVPSRFSGSGPGGTDFTLTISSLQPEDFATYYCQQSYSAPWTFGQGTKVEIK
notes: as for B1
B4: M6-D03 (Fab, V domains shown)
VH: EVQLLESGGGLVQPGGSLRLSCAASGFTFSKYFMGWVRQAPGKGLEWVSVIGSSGGWTSYADSVKGRFTISRDNSKNTLYLQMNSLRAEDTAVYYCARVSTAVADNDYWGQGTLVTVSS
VL: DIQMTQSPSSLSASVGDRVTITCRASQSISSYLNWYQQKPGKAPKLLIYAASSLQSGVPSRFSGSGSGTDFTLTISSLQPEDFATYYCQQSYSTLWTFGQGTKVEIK
notes: as for B1
B5: M29-D10 (Fab, V domains shown)
VH: EVQLLESGGGLVQPGGSLRLSCAASGFTFSWYPMYWVRQAPGKGLEWVSSIGSSGGPTPYADSVKGRFTISRDNSKNTLYLQMNSLRAEDTAVYYCARWADYGGSLDYWGQGTLVTVSS
VL: DIQMTQSPSSLSASVGDTVSITCRASQSITIYLNWYQHKPGKAPNLLIYGASNLHSGVPSRFSGSGSGTDFTLTISSLQPEDFATYYCQQSYDTPLTFGGGTKVEIK
notes: as for B1
B6: M6-G05 (Fab, V domains shown)
VH: EVQLLESGGGLVQPGGSLRLSCAASGFTFSRYRMVWVRQAPGKGLEWVSSIYPSGGMTAYADSVKGRFTISRDNSKNTLYLQMNSLRAEDTAVYYCARDAVGIGDAFDIWGQGTMVTVSS
VL: DIQMTQSPSSLSASVGDRVTITCRASQSISTYLNWYQLKPGKAPKLLIYNAFSMERGVPSTISGSGSGTDFTLTISSLQPEDFATYYCQQSYTTPTTFGQGTKVEIK
notes: as for B1
B7: M6-A08 (Fab, V domains shown)
VH: EVQLLESGGGLVQPGGSLRLSCAASGFTFSPYPMQWVRQAPGKGLEWVSSISSSGGMTEYADSVKGRFTISRDNSKNTLYLQMNSLRAEDTAVYYCARDDYGGKGGAFDIWGQGTMVTVSS
VL: DIQMTQSPSSLSASVGDRVTITCRASQRISFYLNWFQQKPGKAPNLLIYGASSLQSGVPSRFSGSGSGTDFTLTISSLQPKDFGTYYCQQTFSTPNTFGQGTKLEIK
notes: as for B1
B8: M76-F02 (Fab, V domains shown)
VH: EVQLLESGGGLVQPGGSLRLSCAASGFTFSLYDMNWVRQAPGKGLEWVSGISPSGGQTMYADSVKGRFTISRDNSKNTLYLQMNSLRAEDTAVYYCARQPMISAFDIWGQGTMVTVSS
VL: DIQMTQSPSSLSASVGDRVTITCRASQTIDNYLHWYQQKPGKAPKVLIHDASSLQSGVPPRFSGSGSGTDFTLTISSLQPEDFATYYCQQSYDTPQYTFGQGTKLEIK
notes: as for B1
B9: M76-H02 (Fab, V domains shown)
VH: EVQLLESGGGLVQPGGSLRLSCAASGFTFSMYWMQWVRQAPGKGLEWVSYIYPSGGPTKYADSVKGRFTISRDNSKNTLYLQMNSLRAEDTAVYYCARPSGSYGDAFDIWGQGTMVTVSS
VL: DIQMTQSPSSLSASEGDRVTITCRASQDISVYLNWYQMKSGKAPKLLIYGGASLQSGVPARFSGSGYGTDFTLTITDLRPEDFATYYCQQSYSLPFTFGGGTKVEIK
notes: as for B1
B10: M29-G10 (Fab, V domains shown)
VH: EVQLLESGGGLVQPGGSLRLSCAASGFTFSFYKMIWVRQAPGKGLEWVSSISSSGGSTQYADSVKGRFTISRDNSKNTLYLQMNSLRAEDTAVYYCARDRVDLGYLDYWGQGTLVTVSS
VL: DIQMTQSPSSLSSSVGDSATITCRASQSISIYLNWYQQKPGKAPKILIYGASQLESGVPSRFSGSGSGTDFTLTVSGLQPEDFATYWCQQSYNVPYTFGQGTKLEIK
notes: as for B1
B11: M77-H04 (Fab, V domains shown)
VH: EVQLLESGGGLVQPGGSLRLSCAASGFTFSYYTMIWVRQAPGKGLEWVSGIRSSGGGTRYADSVKGRFTISRDNSKNTLYLQMNSLRAEDTAVYYCAKDGSRYSYGSIYYYYGMDAWGQGTTVTVSS
VL: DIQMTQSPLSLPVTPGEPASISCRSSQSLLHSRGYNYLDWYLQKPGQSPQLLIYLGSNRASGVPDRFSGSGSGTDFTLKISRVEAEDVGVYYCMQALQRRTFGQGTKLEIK
notes: as for B1
B12: M76-G02 (Fab, V domains shown)
VH: EVQLLESGGGLVQPGGSLRLSCAASGFTFSLYAMWWVRQAPGKGLEWVSYISSSGGFTSYADSVKGRFTISRDNSKNTLYLQMNSLRAEDTAVYYCARYRVGVAATDYWGQGTLVTVSS
VL: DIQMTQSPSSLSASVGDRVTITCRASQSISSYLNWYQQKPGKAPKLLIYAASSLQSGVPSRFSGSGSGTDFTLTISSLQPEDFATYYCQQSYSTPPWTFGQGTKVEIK
notes: as for B1
B13: M77-C07 (Fab, V domains shown)
VH: EVQLLESGGGLVQPGGSLRLSCAASGFTFSLYIMGWVRQAPGKGLEWVSGIYPSGGFTMYADSVKGRFTISRDNSKNTLYLQMNSLRAEDTAVYYCARESSGVAAPDYWGQGTLVTVSS
VL: DIQMTQSPSTLSASVGDRVTITCRASQNISSYLNWYQQKPGKAPKLLIYAASSLQSGVPSRFSGSGSGTDFTLTISSLQPEDFATYSCQQSYSTPRTFGQGTKVEIK
notes: as for B1
B14: M8-C04 (Fab, V domains shown)
VH: EVQLLESGGGLVQPGGSLRLSCAASGFTFSYYPMQWVRQAPGKGLEWVSYIYPSGGLTSYADSVKGRFTISRDNSKNTLYLQMNSLRAEDTAVYYCARLFYGSGSVGFEYWGQGTLVTVSS
VL: QSALTQPPSVSVSPGQTASITCSGDKLGDKYTSWHQQKPGQSPVLVIYQDSKRPSGIPERFSGSNSGNTATLTISGTQAMDEADYYCQAWDSSTVFGGGTRLTVL
notes: as for B1
B15: M6-D08 (Fab, V domains shown)
VH: EVQLLESGGGLVQPGGSLRLSCAASGFTFSRYHMVWVRQAPGKGLEWVSSISPSGGWTNYADSVKGRFTISRDNSKNTLYLQMNSLRAEDTAMYYCAREMATIAGQFDPWGQGTLVTVSS
VL: DIQMTQSPSSLSASVGDRVTITCRASQSISSYLNWYQQKPGKAPKLLIYGASSLQSGVPSRFSGSGSGTDFTLTISSLQPEDSATYYCQQSYTRWTFGQGTKVEIK
notes: Fab fragment (E. coli TG1); printed HC runs into the start of CH1; The LC is printed with an amber codon 'q' (WYqQK), written here as Q
B16: M76-G06 (Fab, V domains shown)
VH: EVQLLESGGGLVQPGGSLRLSCAASGFTFSGYIMHWVRQAPGKGLEWVSWIYPSGGWTEYADSVKGRFTISRDNSKNTLYLQMNSLRAEDTAVYYCARDAPGVGAIDYWGQGTLVTVSS
VL: DIQMTQSPSSLSASVRDRVTITCRASQSISTYLNWYQQKPGEAPKLLVFAASSLQSGVPSRFSGSGSGTDFTLSISSLQPEDFATYYCQQSYSTPHTFGQGAKVEIK
notes: as for B1

T1 sequence (P03952 20-390, chain 1 of 2): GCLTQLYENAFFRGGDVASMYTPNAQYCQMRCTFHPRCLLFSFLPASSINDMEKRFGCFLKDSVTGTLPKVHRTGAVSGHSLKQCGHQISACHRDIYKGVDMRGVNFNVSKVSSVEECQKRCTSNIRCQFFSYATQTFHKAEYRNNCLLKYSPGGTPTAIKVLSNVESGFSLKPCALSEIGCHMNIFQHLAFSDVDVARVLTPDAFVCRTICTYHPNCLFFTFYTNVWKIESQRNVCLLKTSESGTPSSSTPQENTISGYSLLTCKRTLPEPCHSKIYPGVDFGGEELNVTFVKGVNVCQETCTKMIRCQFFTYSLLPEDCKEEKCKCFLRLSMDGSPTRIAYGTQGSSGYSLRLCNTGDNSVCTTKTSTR
T1 sequence (P03952 391-638, chain 2 of 2): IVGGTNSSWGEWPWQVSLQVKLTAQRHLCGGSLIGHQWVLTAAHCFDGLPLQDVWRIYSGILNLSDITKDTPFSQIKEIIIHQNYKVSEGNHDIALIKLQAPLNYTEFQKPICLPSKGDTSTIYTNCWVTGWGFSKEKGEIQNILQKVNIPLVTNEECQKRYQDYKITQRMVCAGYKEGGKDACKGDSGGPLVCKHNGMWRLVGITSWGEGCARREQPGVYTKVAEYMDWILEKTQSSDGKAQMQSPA

The experiment addresses T1, human plasma kallikrein (human, UniProt P03952 20-390; P03952 391-638).
T1 construct: two disulfide-linked chains; also called pKal; human pKal
In words: ELISA; signal on coated biotinylated human plasma kallikrein divided by signal on streptavidin; Fab. An excerpt:
Abbreviations used: "T/B" is the ELISA signal obtained using of the target (biotinylated plasma kallikrein) divided by the ELISA signal of the "background" (streptavidin); both of which were coated on microtiter plates. "nd" is not determined. The symbol "q" refers to the amber suppressible stop codon (TAG), which is translated as glutamine (Q) in strains of E. coli such as the TG1 cells that were used to express the Fab fragments.
As for B1, the “Human pKal ELISA (T/B)” value was 40.4 T/B (target signal / background signal).
Then B2, with 8.6 T/B (target signal / background signal).
In the case of B3, the “Human pKal ELISA (T/B)” value was 11.7 T/B (target signal / background signal).
Then B4, with 15.5 T/B (target signal / background signal); and B5, with 23.6 T/B (target signal / background signal); and B6, with 18.5 T/B (target signal / background signal).
The value for B7 was 23.4 T/B (target signal / background signal); that for B8 was 6.4 T/B (target signal / background signal).
The value for B9 was 13.4 T/B (target signal / background signal); that for B10 was 16.4 T/B (target signal / background signal); that for B11 was 7.6 T/B (target signal / background signal).
For B12, the “Human pKal ELISA (T/B)” value was 10.3 T/B (target signal / background signal).
The value for B13 was 16.1 T/B (target signal / background signal); that for B14 was 44.7 T/B (target signal / background signal).
The value for B15 was 16 T/B (target signal / background signal); that for B16 was 11.8 T/B (target signal / background signal).

These data come from patent US9266964.
